This is an account of results in article PMC7171142 (Scientific Reports, 2020).

The target in assay [1] is Recombinant Ecto-PfRipr (D21-N1086), C-terminal His-tag (P. falciparum 3D7) (UniProt O97302). The assay is described as follows: SPR; single-cycle kinetics, Biacore X100; recombinant PfRipr immobilised on a CM5 chip as ligand; analytes at 3.13, 6.25, 12.5, 25 and 50 nM, contact time 120 s, dissociation 180 s, last dissociation 3000 s.
The target of assay [2] is T1, Recombinant Ecto-PfRipr (D21-N1086), C-terminal His-tag (P. falciparum 3D7, UniProt O97302 21-1086). The description is as above. The settings on record: both partners purified.
T1 sequence (O97302 21-1086): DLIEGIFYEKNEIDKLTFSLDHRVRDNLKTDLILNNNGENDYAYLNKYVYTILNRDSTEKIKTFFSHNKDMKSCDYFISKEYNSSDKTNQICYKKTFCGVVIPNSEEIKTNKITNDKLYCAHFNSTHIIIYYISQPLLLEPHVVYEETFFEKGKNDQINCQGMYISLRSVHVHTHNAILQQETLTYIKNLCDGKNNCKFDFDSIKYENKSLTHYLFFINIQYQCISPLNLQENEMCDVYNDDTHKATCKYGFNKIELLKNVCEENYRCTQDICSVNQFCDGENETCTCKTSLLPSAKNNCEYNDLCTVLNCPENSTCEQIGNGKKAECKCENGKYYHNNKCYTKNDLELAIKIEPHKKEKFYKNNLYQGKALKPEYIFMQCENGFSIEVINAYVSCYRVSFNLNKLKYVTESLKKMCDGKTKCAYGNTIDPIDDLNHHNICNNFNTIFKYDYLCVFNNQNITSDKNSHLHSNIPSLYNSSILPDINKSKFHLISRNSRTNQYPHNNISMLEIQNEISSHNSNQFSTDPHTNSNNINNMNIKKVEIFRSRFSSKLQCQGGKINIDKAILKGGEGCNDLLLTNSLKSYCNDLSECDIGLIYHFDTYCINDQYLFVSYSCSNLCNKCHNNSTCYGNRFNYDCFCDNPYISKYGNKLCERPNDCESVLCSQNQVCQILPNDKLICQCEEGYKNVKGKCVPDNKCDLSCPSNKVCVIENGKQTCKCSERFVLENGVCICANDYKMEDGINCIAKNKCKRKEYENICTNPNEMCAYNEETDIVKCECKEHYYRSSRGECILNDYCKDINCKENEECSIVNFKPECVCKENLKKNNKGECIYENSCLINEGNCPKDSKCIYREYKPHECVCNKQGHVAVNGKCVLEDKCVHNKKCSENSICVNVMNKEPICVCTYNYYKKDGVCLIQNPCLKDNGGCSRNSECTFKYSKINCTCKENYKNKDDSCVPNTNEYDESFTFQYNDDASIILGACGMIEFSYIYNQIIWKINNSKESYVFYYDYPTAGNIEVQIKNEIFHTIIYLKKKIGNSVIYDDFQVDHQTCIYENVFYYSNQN
The target of assay [3] is T1, Recombinant Ecto-PfRipr (D21-N1086), …. The assay is described as follows: SPR; single-cycle kinetics, Biacore X100; […], dissociation 180 s, […]. The note with it: both partners purified.

Recombinant Ecto-PfRipr (D21-N1086), C-terminal His-tag (P. falciparum 3D7), sequence (O97302 21-1086): as above

Take “GST-fused recombinant NPTN (Q29-L221) with C-terminal His-tag (domain or fragment)”: in assay [1], the Kd (commonly the constant that tells how readily two partners part at equilibrium) was found to be 24 nM, the koff (usually a measure of how fast the partners let go of each other) came out at 6.5e-05 s⁻¹ and the kon (commonly a measure of how fast the partners come together) was determined as 2700 M⁻¹ s⁻¹.

B1: Recombinant Rh5 (E26-Q526), released from GST by TEV protease (domain or fragment)
chain: ENAIKKTKNQENNLTLLPIKSTEEEKDDIKNGKDIKKEIDNDKENIKTNNAKDHSTYIKSYLNTNVNDGLKYLFIPSHNSFIKKYSVFNQINDGMLLNEKNDVKNNEDYKNVDYKNVNFLQYHFKELSNYNIANSIDILQEKEGHLDFVIIPHYTFLDYYKHLSYNSIYHKSSTYGKCIAVDAFIKKINETYDKVKSKCNDIKNDLIATIKKLEHPYDINNKNDDSYRYDISEEIDDKSEETDDETEEVEDSIQDTDSNHTPSNKKKNDLMNRTFKKMMDEYNTKKKKLIKCIKNHENDFNKICMDMKNYGTNLFEQLSCYNNNFCNTNGIRYHYDEYIHKLILSVKSKNLNKDLSDMTNILQQSELLLTNLNKKMGSYIYIDTIKFIHKEMKHIFNRIEYHTKIINDKTKIIQDKIKLNIWRTFQKDELLKRILDMSNEYSLFITSDHLRQMLYNTFYSKEKHLNNIFHHLIYVLQMKFNDVPIKMEYFQTYKKNKPLTQ
As to B1, in assay [2], the Kd is 0.48 nM, the koff came out at 2.9e-05 s⁻¹ and the kon turned out to be 61000 M⁻¹ s⁻¹.

B2: GST-fused recombinant AMIGO2 (M1-N397) with C-terminal His-tag (domain or fragment, human, UniProt Q86SJ2 1-397, looked up)
chain: MSLRVHTLPTLLGAVVRPGCRELLCLLMITVTVGPGASGVCPTACICATDIVSCTNKNLSKVPGNLFRLIKRLDLSYNRIGLLDSEWIPVSFAKLNTLILRHNNITSISTGSFSTTPNLKCLDLSSNKLKTVKNAVFQELKVLEVLLLYNNHISYLDPSAFGGLSQLQKLYLSGNFLTQFPMDLYVGRFKLAELMFLDVSYNRIPSMPMHHINLVPGKQLRGIYLHGNPFVCDCSLYSLLVFWYRRHFSSVMDFKNDYTCRLWSDSRHSRQVLLLQDSFMNCSDSIINGSFRALGFIHEAQVGERLMVHCDSKTGNANTDFIWVGPDNRLLEPDKEMENFYVFHNGSLVIESPRFEDAGVYSCIAMNKQRLLNETVDVTINVSNFTVSRSHAHEAFN
B2: in assay [2], the Kd was determined as 0.16 nM, the koff turned out to be 2e-05 s⁻¹ and the kon is 120000 M⁻¹ s⁻¹.

B3: GST-fused recombinant CyRPA (N27-E362) with C-terminal His-tag (domain or fragment)
chain: NCDSRHVFIRTELSFIKNNVPCIRDMFFIYKRELYNICLDDLKGEEDETHIYVQKKVKDSWITLNDLFKETDLTGRPHIFAYVDVEEIIILLCEDEEFSNRKKDMTCHRFYSNDGKEYNNSEITISDYILKDKLLSSYVSLPLKIENREYFLICGVSPYKFKDDNKKDDILCMASHDKGETWGTKIVIKYDNYKLGVQYFFLRPYISKNDLSFHFYVGDNINNVKNVNFIECTHEKDLEFVCSNRDFLKDNKVLQDVSTLNDEYIVSYGNDNNFAECYIFFNNENSILIKPEKYGNTTAGCYGGTFVKIDENRTLFIYSSSQGIYNIHTIYYANYE
B3: in assay [3], the Kd came out at 69 nM, the koff was determined as 0.00016 s⁻¹ and the kon was found to be 2400 M⁻¹ s⁻¹.

B4: GST-fused recombinant SEMA7A (Q45-H666) with C-terminal His-tag (domain or fragment, human, UniProt O75326 45-666, looked up)
chain: QGHLRSGPRIFAVWKGHVGQDRVDFGQTEPHTVLFHEPGSSSVWVGGRGKVYLFDFPEGKNASVRTVNIGSTKGSCLDKRDCENYITLLERRSEGLLACGTNARHPSCWNLVNGTVVPLGEMRGYAPFSPDENSLVLFEGDEVYSTIRKQEYNGKIPRFRRIRGESELYTSDTVMQNPQFIKATIVHQDQAYDDKIYYFFREDNPDKNPEAPLNVSRVAQLCRGDQGGESSLSVSKWNTFLKAMLVCSDAATNKNFNRLQDVFLLPDPSGQWRDTRVYGVFSNPWNYSAVCVYSLGDIDKVFRTSSLKGYHSSLPNPRPGKCLPDQQPIPTETFQVADRHPEVAQRVEPMGPLKTPLFHSKYHYQKVAVHRMQASHGETFHVLYLTTDRGTIHKVVEPGEQEHSFAFNIMEIQPFRRAAAIQTMSLDAERRKLYVSSQWEVSQVPLDLCEVYGGGCHGCLMSRDPYCGWDQGRCISIYSSERSVLQSINPAEPHKECPNPKPDKAPLQKVSLAPNSRYYLSCPMESRHATYSWRHKENVEQSCEPGHQSPNCILFIENLTAQQYGHYFCEAQEGSYFREAQHWQLLPEDGIMAEHLLGHACALAASLWLGVLPTLTLGLLVH
Regarding B4, in assay [2], the Kd is 0.94 nM, the koff is 4.1e-05 s⁻¹ and the kon turned out to be 44000 M⁻¹ s⁻¹.
